In the DeepSol protein solubility set:

experiment: soluble on expression in E. coli; label from the status in PepcDB or PDB records

Row | Sequence | soluble on expression in E. coli
1 | MGSDKIHHHHHHMIQTYILKIQSLKWAQREMLKTTLITDTLGHVTSTEPTTTAHVPLPDGSSTPVQIWASDNKDSQLVMLWPGFGMGGYYYRPLAAALNKAGFHVAIGELRGQGQSSAKASRKSQWGYHDLASVDFPLQIAAAKKALDLEEGHPMRFLSHSMGGQISCLFAARPEAEKYNLRAIFGVGAGSPFRPTFSPKMGKRLGLGAVLLGGIGGHIVGFWPGKVLGKDLVGYGRQSGTHMREWRRFHKHNSLDDLTAQDINYVEVMKKVSIPITFSRCPDDEDCPQASIDGLASFVPAAQIKMIEIPEALGHNRWAREPESTVKLFLEQAL | not soluble
2 | MRIPRDTGAAEPGQYRTARTPYAREPMRCLSPAHPCKRVVTMVASQLMKTQIALNWIGALIHMSPSNILTLLPSLSLAKRVSARISKTINATPVLRERVASPRSRDARNTMDTKEFEGGALFATTAGSAANLAELSARFVYGDEVDRWDVDVDDEGDPIELAETRGSTFGRNAKFYFSSSPTIKGASRIDDLFSTSDQRYYYVPCPSCGHMQTLEWERLLYSPDFSTVHYQCAGPDCDVLIEEFHKGDMLARGEWRSHADGDGETVGFHLNALYAPLGWQSWSSLAKQYEKAKKAQDRGDLEPMQVFYNTRLAKVWDSAQEQTKAAVLQARALLEDYVLGTMPTGVLSLVSAVDVQANRLEMMVVGCGEGMERWIVDFQVIMGDPADDRTWLALDEKLKERYRHPCGVSLAILATAVDSGGHHTHEVYQFCRVRRWRNVFAIKGASKPGKPVIAQRPSLVDVTWKGQTERNGAELWMVGTDTAKDWIYNRYHLESGPGALHFPKDLPDDFFAQCVAERKVTRYVKGFKRIEWVKGKAERNEALDLLVYSLAMAHYLGLHRYGEHDW | not soluble
3 | MGSDKIHHHHHHMKWCSSMSDPKPCIICVAITGSVPTKAANPAVPITVAEQIESTHAAFEAGAAICHAHVRNDDETPSSDPEKFARLKEGVEGHCPGMIVQLSTGGRSGASKERGGMLPLRPDMASLSVGSNNFPTRVYENPPDLVDWLAAEMRTYDIKPEIEAFDLSHIHHAALMHQRGQLAGHPYVQFVMGVKNAMPADRETFDFYVATMTRLLPESEWCAAGIGPNQIVLNEWAIAAGGHARTGLEDNVRWDKQTLAPSNAALVERTAEICEKNGRPVATTAQAREILGLRT | not soluble
4 | MSQTTTNPHVAVLAFPFSTHAAPLLAVVRRLAAAAPHAVFSFFSTSQSNASIFHDSMHTMQCNIKSYDISDGVPEGYVFAGRPQEDIELFTRAAPESFRQGMVMAVAETGRPVSCLVADAFIWFAADMAAEMGVAWLPFWTAGPNSLSTHVYIDEIREKIGVSGIQGREDELLNFIPGMSKVRFRDLQEGIVFGNLNSLFSRMLHRMGQVLPKATAVFINSFEELDDSLTNDLKSKLKTYLNIGPFNLITPPPVVPNTTGCLQWLKERKPTSVVYISFGTVTTPPPAEVVALSEALEASRVPFIWSLRDKARVHLPEGFLEKTRGYGMVVPWAPQAEVLAHEAVGAFVTHCGWNSLWESVAGGVPLICRPFFGDQRLNGRMVEDVLEIGVRIEGGVFTKSGLMSCFDQILSQEKGKKLRENLRALRETADRAVGPKGSSTENFITLVDLVSKPKDV | soluble
5 | SQPVAITDGIYWVGAVDWNIRYFHGPAFSTHRGTTYNAYLIVDDKTALVDTVYEPFKEELIAKLKQIKDPVKLDYLVVNHTESDHAGAFPAIMELCPDAHVLCTQRAFDSLKAHYSHIDFNYTIVKTGTSVSLGKRSLTFIEAPMLHWPDSMFTYVPEEALLLPNDAFGQHIATSVRFDDQVDAGLIMDEAAKYYANILMPFSNLITKKLDEIQKINLAIKTIAPSHGIIWRKDPGRIIEAYARWAEGQGKAKAVIAYDTMWLSTEKMAHALMDGLVAGGCEVKLFKLSVSDRNDVIKEILDARAVLVGSPTINNDILPVVSPLLDDLVGLRPKNKVGLAFGAYGWGGGAQKILEERLKAAKIELIAEPGPTVQWVPRGEDLQRCYELGRKIAARIAD | soluble
6 | MGSDKIHHHHHHMETKINSKALKAEALRLGFSACGIAPAEPIDQAHQNALKMWLDADRQAGMTYMANHFDKRCDPALLVEGTRCVVSVALNYYPATRIPDEEYQFAWYAYGKDYHDLMREKLATLFRFIQESDVPELNGRMFCDTAPVPERYWAWRAGLGWIGKNTQLIIPHAGSTFFLGELFLNTEADTYDRPQPNRCGRCNRCLQACPTKALETPYSLNAHRCLSYLTIENKSEIPDSIAPFMGNRVYGCDECQKACPWNRFATPCRTPELQPSPEFMNMKKEDWKQLSEEKYRALFKGSAVKRAKYSGLIRNIRQMED | not soluble
7 | MARKRIITPEKKELIRNLISEYNITSAKDLQEALKDLLGDTIQNMLEAELDEHLGYEKYESTEEAKSNYRNGYTSKTLKSSVGQVEIDIPRDRNAEFEPKIVPRYKRDISEIENKIIAMYARGMSTREINEQIQEIYGFEVSAEMVSKITDKILPEIEEWQKRPLGEVYPIVFIDAIHFSVKNDGIVGKKAIYIVLAIDIEGQKDVIGIYVGENESSKFWLSVLNDLKNRGVKDILILCADALSGIKDAINAAFPNTEYQRCIVHQIRNTLKYVSDKDRKEFARDLKRIYTAPNEKAGYDQMLEVSEKWEKKYPAAMKSWKSNWDVICPFFKYSEELRKIMYTTNTIESLNSSYRRINKSRTVFPGDQSLLKSIYLATVKITSKWTMRYKNWGLILGQLQIMFEGRI | not soluble
8 | FPSKARMFEGLIEFIEESLMSRINRIFDEEKDTLNRIRLVMQLLLAFAERNPGLTRILSGHALMFENERLRDRINQLFERIETSLRQILRERKLREGKSFPVDENILAAQLLGQVEGSLNRFVRSDFKYLPTANFDEYWALLSAQIK | not soluble
9 | MSLGSNKTIIINLNNLEHNLNLIKNKIGEKEIVATLKGDAYGHGLINIFKFLKSKNINYFGLSNIEDAKTLKKIDKNIKILMYIKVDKKEIKNLIKFELVPFVSDFEYLFLIEKECALQKNKIKVHLKIDIGMNRYGIKIDDALEIATYIQNSKFLELEGICSHLPSIENFKTTQKQIEQFLFFLETLKQKNIHPKFVHISNSGHIINYKLNPQFNMVRPGLILYGYCQSLKNKKPALNFKPVLSLFSKVIFIKNVKKGEKISYSGIFQAKEDMKIGIIPIGYFDGIPQNISNDFYFLINNKKCKIRGKVCMNLTIVEIPKDLKVKTGSKVEIVSEKLSIDEMSKFSKRSHYELLCNIGKYEKRKYLDEGHHHITTDPNSSSVDKLAAALEHHHHHH | soluble
10 | DVQLQESGPGLVKPSQSLSLTCTVTGYSITNNYAWNWIRQFPGNKLEWMGYINYSGTTSYNPSLKSRISITRDTSKNQFFLQLNSVTTEDTATYFCVRGYDYFAMDYWGQGTSVTVSSAKTTPPSVYPLAPGSAAQTNSMVTLGCLVKGYFPEPVTVTWNSGSLSSGVHTFPAVLQSDLYTLSSSVTVPSSTWPSETVTCNVAHPASSTKVDKKIVPRDCG | soluble
11 | MGSDKIHHHHHHMMCFSCRVTSDAKVVFLDVIPTPQDIISDFSYICLLLTIKFEYMENISRRTAIKTFLAGGVALATTGIEAAAAAKKKTDVKEPLKGNVRHSVSKWCFGDYKLDEFCEICKHIGIESVELLDPVDWPIVQKHGLTVAMAQGAGLGIDRGFNDPALHDELVASYEKVIPMVADAGLTNLICFSGRRNGVTDLQGWENCEKGLKRLIPLAEKHKVVLTMELLNSVGHKDYLCDHTVWGAELCRRIGSPNFKLLYDIYHMQIMEGNIIENIRKYHPYFSHVHTGGSPGRAEIDETQELYYPAIIKALMETGYKGFVGQEFVPAQEDKIASLEKCIRICDV | not soluble
12 | MLDYIPWIGNGYRYGNGYKGVAGAGHSATNGSPAGNTSSTTQSNDVAPTFSNVGVGLKANVQGTLGDSQTTTVGGHQWPTLDPANLQLWTGAEWRNDSKTQNNTTTNENHTKFASATGSGQQQGSTTTTSAGNPDSLKQDKADKSGNSISVQEATSGDNLTNYTNLPPNLTPTSDWPNALSFTNKNNAQRAQLFLRGLLGSIPVLVNNLEHHHHHH | not soluble
13 | MSLMYSRKFQILKENIGLYHGDFMDFEVYDTEYMSIIFVKDRLDYTGKEIEPLWAFKTFDIQKDSIVVFRGRMEVTTENMKDLKDIKREKDIKTPIKSEDAINFVVEHFDVIDLKTIYLRQRLLVFIAKEVIESYNIKLKRDGDDLYFEDKKLSVCIACKGTVSAKIHLGINVKSKGAEHVKIIGLEDLGIKDIDKVMREIAINYAKEIDKIERDLRKTLPLIEGHHHHHH | soluble
14 | MIRKLDKAEFQQATTLALEVYLQCGQDDFEDEGLESFKSFIFNDKLMNELCIYGAFEENKLIGIMGTKNEGKHISLFFIKKEFHRKGIGKQLFDYSQCDCPANEITVNSSTYAIRFYESLGFEKTNDRQQTNGISYTPMKLISNKLEHHHHHH | soluble
